This is an account of results in PMC12718381.

The target in this assay is HA-STIM1-L258C (UniProt Q13586). Briefly: disulfide crosslinking, Western blot. The following applies: diamide-treated STIM1/2 DKO HEK293 cells coexpressing HA-STIM1-L258C and a single mCh-STIM1 mutant; read off a plot.
Take mCh-STIM1 424C: the other: Crosslinking (%) came out at 7%.

Turning to mCh-STIM1 422C, the other: Crosslinking (%) is 1.2%.

In the case of mCh-STIM1 421C, the other: Crosslinking (%) worked out at 1.8%.

Regarding mCh-STIM1 418C, the other: Crosslinking (%) stood at 3.8%.

Substance mCh-STIM1 417C had an other: Crosslinking (%) of 2.9%.
